Drawing on publication PMC12593533, “Unravelling tandem repeat-mediated mutagenesis drive rapid diversification of KPC enzymes: emergence of blaKPC-263 and enhanced resistance to ceftazidime-avibactam” (eBioMedicine, 2025), this text covers Km, kcat and kcat/Km for 1 substance.

Holding throughout (test): purified protein
In data set [1] the test system is C[C@@H](O)[C@H]1C(=O)N2C(C(=O)O)=C(SCCN=CN)C[C@H]12.
In data set [2] the test system is CC(C)(O/N=C(\C(=O)N[C@@H]1C(=O)N2C(C(=O)[O-])=C(C[n+]3ccccc3)CS[C@H]12)c1csc(N)n1)C(=O)O.
The subject of data set [3] is C[C@@H](O)[C@H]1C(=O)N2C(C(=O)O)=C(S[C@@H]3CN[C@H](C(=O)N(C)C)C3)[C@H](C)[C@H]12.

With KPC-2 (Klebsiella pneumoniae), in data set [1], the Km came to 380 µM, the catalytic constant (kcat) was found to be 199 s⁻¹ and the kcat/Km was found to be 523000 M⁻¹ s⁻¹. In data set [2], the Michaelis-Menten constant (Km) was 580 µM, the catalytic constant (kcat) came out at 42.9 s⁻¹ and the specificity constant (kcat/Km) is 74000 M⁻¹ s⁻¹. In data set [3], the Km was determined as 420 µM, the catalytic constant (kcat) was determined as 112 s⁻¹ and the specificity constant (kcat/Km) came to 268000 M⁻¹ s⁻¹.
